Assay results as given in patent US20210261648A1 (published 2021).

T1: FcγRIIa type H extracellular domain with C-terminal His tag (human, UniProt P12318 34-217)
T1 construct: extracellular domain; also called FcgRIIaH; FcγRIIa H
T1 sequence (looked up): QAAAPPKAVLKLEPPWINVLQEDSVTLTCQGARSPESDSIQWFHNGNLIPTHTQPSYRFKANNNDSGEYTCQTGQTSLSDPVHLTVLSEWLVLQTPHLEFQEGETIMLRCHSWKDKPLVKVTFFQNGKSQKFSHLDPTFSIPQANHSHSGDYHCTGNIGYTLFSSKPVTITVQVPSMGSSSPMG

T2: FcγRIIb (human, UniProt P31994 43-217)
T2 construct: extracellular domain; also called FcgRIIb; CD32B
T2 sequence (looked up): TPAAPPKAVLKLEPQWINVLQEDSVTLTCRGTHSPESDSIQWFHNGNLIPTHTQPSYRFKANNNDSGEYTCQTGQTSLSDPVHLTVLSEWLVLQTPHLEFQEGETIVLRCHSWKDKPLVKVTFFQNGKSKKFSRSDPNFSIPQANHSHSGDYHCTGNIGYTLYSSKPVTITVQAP

T3: FcγRIIa type R (human, UniProt P12318 34-217)
T3 chain: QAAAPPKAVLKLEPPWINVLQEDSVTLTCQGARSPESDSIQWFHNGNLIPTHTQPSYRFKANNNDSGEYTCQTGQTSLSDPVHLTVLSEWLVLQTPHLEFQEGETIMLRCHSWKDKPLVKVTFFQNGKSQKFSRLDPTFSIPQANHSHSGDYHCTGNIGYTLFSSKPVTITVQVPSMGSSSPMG


What was measured:
[1] = biological target: T1, FcγRIIa type H extracellular domain …; experiment: SPR, captured antibody, FcgR analyte
Experimental: (§1) Relative binding activities were calculated for the results of analyzing interactions with the respective FcγRs according to the following method.

[2] = biological target: T4, FcγRIa extracellular domain with C-terminal His tag (human, UniProt P12314 16-292); experiment: SPR, captured antibody, FcgR analyte
T4 construct: also called FcgRIa
T4 sequence (P12314 16-292): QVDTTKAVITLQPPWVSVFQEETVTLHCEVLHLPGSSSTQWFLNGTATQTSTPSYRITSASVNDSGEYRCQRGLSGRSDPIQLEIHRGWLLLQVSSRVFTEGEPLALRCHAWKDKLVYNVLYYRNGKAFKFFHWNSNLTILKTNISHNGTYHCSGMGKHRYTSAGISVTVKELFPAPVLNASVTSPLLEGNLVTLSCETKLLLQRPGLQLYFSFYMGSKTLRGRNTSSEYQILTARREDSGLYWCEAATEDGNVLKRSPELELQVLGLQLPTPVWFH
Experimental: as §1

[3] = biological target: T2, FcγRIIb; experiment: SPR (Biacore); parent = IL6R-B3/IL6R-L
[4] = biological target: T3, FcγRIIa type R; experiment: SPR (Biacore); parent = IL6R-B3/IL6R-L
[5] = biological target: T5, FcγRIa (human, UniProt P12314 16-292); experiment: SPR (Biacore), captured antibody, soluble FcγR
T5 construct: Whole entry named; also called FcgRIa; CD64A
T5 sequence (P12314 16-292): as above

[6] = biological target: T2, FcγRIIb; experiment: SPR (Biacore), captured antibody, soluble FcγR
[7] = biological target: T3, FcγRIIa type R; experiment: SPR (Biacore), captured antibody, soluble FcγR

Row | Binder | relative binding activity [1] | relative binding activity [2] | KD(IIb) of the parent polypeptide/KD(IIb) of the altered polypeptide [3] | KD(IIaR) of the parent polypeptide/KD(IIaR) of the altered polypeptide [4] | Kd [5] | Kd [6] | Kd [7]
1 | IL6R-BP130/IL6R-L (antibody, human IgG1, kappa) heavy: QVQLQESGPGLVKPSETLSLTCAVSGHSISHDHAWSWVRQPPGEGLEWIGFISYSGITNYNPSLQGRVTISRDNSKNTLYLQMNSLRAEDTAVYYCARSLARTTAMDYWGEGTLVTVSSASTKGPSVFPLAPSSKSTSGGTAALGCLVKDYFPEPVTVSWNSGALTSGVHTFPAVLQSSGLYSLSSVVTVPSSSLGTQTYICNVNHKPSNTKVDKKVEPKSCDKTHTCPPCPAPDLLGGDSVFLFPPKPKDTLMISRTPEVTCVVVDVSHEDPEVKFNWYVDGVEVHNAKTKPREEQYNSTYRVVSVLTVLHQDWLNGKEYKCKMSNKALPKPIEKTISKAKGQPREPQVYTLPPSRDELTKNQVSLTCLVKGFYPSDIAVEWESNGQPENNYKTTPPVLDSDGSFFLYSKLTVDKSRWQQGNVFSCSVMHEALHNHYTQESLSLSP light: not shown | 224 relative (IL6R-BF648/IL6R-L = 100) | 104 relative (IL6R-BF648/IL6R-L = 100) | – | – | – | – | –
2 | IL6R-BP500/IL6R-L (antibody, human IgG1, kappa, Alterations in EU numbering, introduced into IL6R-B3) heavy: QVQLQESGPGLVKPSETLSLTCAVSGHSISHDHAWSWVRQPPGEGLEWIGFISYSGITNYNPSLQGRVTISRDNSKNTLYLQMNSLRAEDTAVYYCARSLARTTAMDYWGEGTLVTVSSASTKGPSVFPLAPSSKSTSGGTAALGCLVKDYFPEPVTVSWNSGALTSGVHTFPAVLQSSGLYSLSSVVTVPSSSLGTQTYICNVNHKPSNTKVDKKVEPKSCDKTHTCPPCPAPELLGDDSVFLFPPKPKDTLMISRTPEVTCVVIDVAEEDGEVKFNWYVDGVEVHNAKTKPREEQDNSTYRVVSVLTVLHQDWLNGKEYKCKVSNKALPAPIEKTISKAKGQPREPQVYTLPPSRDELTKNQVSLTCLVKGFYPSDIAVEWESNGQPENNYKTTPPVLDSDGSFFLYSKLTVDKSRWQQGNVFSCSVMHEALHNHYTQESLSLSP light: not shown | – | – | 128 fold | 1.5 fold | 2.3 nM | 24 nM | 720 nM
3 | IL6R-BP508/IL6R-L (antibody, human IgG1, kappa, Alterations in EU numbering, introduced into IL6R-B3) heavy: QVQLQESGPGLVKPSETLSLTCAVSGHSISHDHAWSWVRQPPGEGLEWIGFISYSGITNYNPSLQGRVTISRDNSKNTLYLQMNSLRAEDTAVYYCARSLARTTAMDYWGEGTLVTVSSASTKGPSVFPLAPSSKSTSGGTAALGCLVKDYFPEPVTVSWNSGALTSGVHTFPAVLQSSGLYSLSSVVTVPSSSLGTQTYICNVNHKPSNTKVDKKVEPKSCDKTHTCPPCPAPDLLGDDSVFLFPPKPKDTLMISRTPEVTCVVIDVAEEDGPVKFNWYVDGVEVHNAKTKPREEQDNSTYRVVSVLTVLHQDWLNGKEYKCKVSNKALPAPIEKTISKAKGQPREPQVYTLPPSRDELTKNQVSLTCLVKGFYPSDIAVEWESNGQPENNYKTTPPVLDSDGSFFLYSKLTVDKSRWQQGNVFSCSVMHEALHNHYTQESLSLSP light: not shown | – | – | 149 fold | 2 fold | 1.4 nM | 21 nM | 540 nM
4 | IL6R-BP501/IL6R-L (antibody, human IgG1, kappa, Alterations in EU numbering, introduced into IL6R-B3) heavy: QVQLQESGPGLVKPSETLSLTCAVSGHSISHDHAWSWVRQPPGEGLEWIGFISYSGITNYNPSLQGRVTISRDNSKNTLYLQMNSLRAEDTAVYYCARSLARTTAMDYWGEGTLVTVSSASTKGPSVFPLAPSSKSTSGGTAALGCLVKDYFPEPVTVSWNSGALTSGVHTFPAVLQSSGLYSLSSVVTVPSSSLGTQTYICNVNHKPSNTKVDKKVEPKSCDKTHTCPPCPAPELLGDDSVFLFPPKPKDTLMISRTPEVTCVVIDVAEEDGEVKFNWYVDGVEVHNAKTKPREEQYNSTYRVVSVLTVLHQDWLNGKEYKCKVSNKALPAPIEKTISKAKGQPREPQVYTLPPSRDELTKNQVSLTCLVKGFYPSDIAVEWESNGQPENNYKTTPPVLDSDGSFFLYSKLTVDKSRWQQGNVFSCSVMHEALHNHYTQESLSLSP light: not shown | – | – | 123 fold | 1.7 fold | 2.1 nM | 25 nM | 630 nM
5 | IL6R-BP549/IL6R-L (antibody, human IgG1, kappa, Alterations in EU numbering, introduced into IL6R-B3) heavy: QVQLQESGPGLVKPSETLSLTCAVSGHSISHDHAWSWVRQPPGEGLEWIGFISYSGITNYNPSLQGRVTISRDNSKNTLYLQMNSLRAEDTAVYYCARSLARTTAMDYWGEGTLVTVSSASTKGPSVFPLAPSSKSTSGGTAALGCLVKDYFPEPVTVSWNSGALTSGVHTFPAVLQSSGLYSLSSVVTVPSSSLGTQTYICNVNHKPSNTKVDKKVEPKSCDKTHTCPPCPAPELLGDDSVFLFPPKPKDTLMISRTPEVTCVVVDVGEEDGEVKFNWYVDGVEVHNAKTKPREEQYNSTYRVVSVLTVLHQDWLNGKEYKCKVSNKALPRPIEKTISKAKGQPREPQVYTLPPSRDELTKNQVSLTCLVKGFYPSDIAVEWESNGQPENNYKTTPPVLDSDGSFFLYSKLTVDKSRWQQGNVFSCSVMHEALHNHYTQESLSLSP light: not shown | – | – | 196 fold | 1.9 fold | 18 nM | 16 nM | 570 nM

More lines, now with the values ahead:

Row | relative binding activity [1] | relative binding activity [2] | KD(IIb) of the parent polypeptide/KD(IIb) of the altered polypeptide [3] | KD(IIaR) of the parent polypeptide/KD(IIaR) of the altered polypeptide [4] | Kd [5] | Kd [6] | Kd [7] | Binder
6 | – | – | 145 fold | 2.6 fold | 1.1 nM | 21 nM | 430 nM | IL6R-BP505/IL6R-L (antibody, human IgG1, kappa, Alterations in EU numbering, introduced into IL6R-B3) heavy: QVQLQESGPGLVKPSETLSLTCAVSGHSISHDHAWSWVRQPPGEGLEWIGFISYSGITNYNPSLQGRVTISRDNSKNTLYLQMNSLRAEDTAVYYCARSLARTTAMDYWGEGTLVTVSSASTKGPSVFPLAPSSKSTSGGTAALGCLVKDYFPEPVTVSWNSGALTSGVHTFPAVLQSSGLYSLSSVVTVPSSSLGTQTYICNVNHKPSNTKVDKKVEPKSCDKTHTCPPCPAPDLLGDDSVFLFPPKPKDTLMISRTPEVTCVVIDVAEEDGDVKFNWYVDGVEVHNAKTKPREEQYNSTYRVVSVLTVLHQDWLNGKEYKCKVSNKALPAPIEKTISKAKGQPREPQVYTLPPSRDELTKNQVSLTCLVKGFYPSDIAVEWESNGQPENNYKTTPPVLDSDGSFFLYSKLTVDKSRWQQGNVFSCSVMHEALHNHYTQESLSLSP light: not shown
7 | – | – | 128 fold | 2.4 fold | 1.4 nM | 24 nM | 450 nM | IL6R-BP504/IL6R-L (antibody, human IgG1, kappa, Alterations in EU numbering, introduced into IL6R-B3) heavy: QVQLQESGPGLVKPSETLSLTCAVSGHSISHDHAWSWVRQPPGEGLEWIGFISYSGITNYNPSLQGRVTISRDNSKNTLYLQMNSLRAEDTAVYYCARSLARTTAMDYWGEGTLVTVSSASTKGPSVFPLAPSSKSTSGGTAALGCLVKDYFPEPVTVSWNSGALTSGVHTFPAVLQSSGLYSLSSVVTVPSSSLGTQTYICNVNHKPSNTKVDKKVEPKSCDKTHTCPPCPAPDLLGDDSVFLFPPKPKDTLMISRTPEVTCVVIDVAEEDGPVKFNWYVDGVEVHNAKTKPREEQYNSTYRVVSVLTVLHQDWLNGKEYKCKVSNKALPAPIEKTISKAKGQPREPQVYTLPPSRDELTKNQVSLTCLVKGFYPSDIAVEWESNGQPENNYKTTPPVLDSDGSFFLYSKLTVDKSRWQQGNVFSCSVMHEALHNHYTQESLSLSP light: not shown
8 | – | – | 110 fold | 0.7 fold | 1.1 nM | 28 nM | 1600 nM | IL6R-BP559/IL6R-L (antibody, human IgG1, kappa, Alterations in EU numbering, introduced into IL6R-B3) heavy: QVQLQESGPGLVKPSETLSLTCAVSGHSISHDHAWSWVRQPPGEGLEWIGFISYSGITNYNPSLQGRVTISRDNSKNTLYLQMNSLRAEDTAVYYCARSLARTTAMDYWGEGTLVTVSSASTKGPSVFPLAPSSKSTSGGTAALGCLVKDYFPEPVTVSWNSGALTSGVHTFPAVLQSSGLYSLSSVVTVPSSSLGTQTYICNVNHKPSNTKVDKKVEPKSCDKTHTCPPCPAPELLGGDSVFLFPPKPKDTLMISRTPEVTCVVIDVAEEDGDVKFNWYVDGVEVHNAKTKPREEQDNSTYRVVSVLTVLHQDWLNGKEYKCKVSNKALPAPIEKTISKAKGQPREPQVYTLPPSRDELTKNQVSLTCLVKGFYPSDIAVEWESNGQPENNYKTTPPVLDSDGSFFLYSKLTVDKSRWQQGNVFSCSVMHEALHNHYTQESLSLSP light: not shown
9 | – | – | 174 fold | 2.1 fold | 1.1 nM | 18 nM | 520 nM | IL6R-BP509/IL6R-L (antibody, human IgG1, kappa, Alterations in EU numbering, introduced into IL6R-B3) heavy: QVQLQESGPGLVKPSETLSLTCAVSGHSISHDHAWSWVRQPPGEGLEWIGFISYSGITNYNPSLQGRVTISRDNSKNTLYLQMNSLRAEDTAVYYCARSLARTTAMDYWGEGTLVTVSSASTKGPSVFPLAPSSKSTSGGTAALGCLVKDYFPEPVTVSWNSGALTSGVHTFPAVLQSSGLYSLSSVVTVPSSSLGTQTYICNVNHKPSNTKVDKKVEPKSCDKTHTCPPCPAPDLLGDDSVFLFPPKPKDTLMISRTPEVTCVVIDVAEEDGDVKFNWYVDGVEVHNAKTKPREEQDNSTYRVVSVLTVLHQDWLNGKEYKCKVSNKALPAPIEKTISKAKGQPREPQVYTLPPSRDELTKNQVSLTCLVKGFYPSDIAVEWESNGQPENNYKTTPPVLDSDGSFFLYSKLTVDKSRWQQGNVFSCSVMHEALHNHYTQESLSLSP light: not shown
